Reference: paper PMC8073056

Target: purified full-length Arpin (N-terminal 6xHis-tagged) (human) (UniProt Q7Z6K5)
Assay: SEC-MALS; purified Arpin and purified ARC4 of TNKS2 mixed; 15-mL KW-803 column (Shodex), dn/dc 0.183 mL/g

stoichiometry N: 1
Substance: ARC4 of TNKS2 (purified)
